Results published in the Immune Epitope Database (IEDB).

Experiments:
HLA-C*14:02 = test: IEDB peptide-MHC binding, purified MHC/direct/fluorescence; filed as Kd, often an IC50 or EC50 that approximates it; ≥ and ≤ were set here for values at or beyond the usual limits of such assays
HLA-B*07:02 [1] = test: IEDB peptide-MHC binding, purified MHC/competitive/fluorescence; filed as Kd, often an IC50 or EC50 that approximates it; ≥ and ≤ were set here for values at or beyond the usual limits of such assays; details: source organism: Yersinia pestis Antiqua
HLA-C*05:01 = test: IEDB peptide-MHC binding, purified MHC/direct/fluorescence; filed as Kd, often an IC50 or EC50 that approximates it; ≥ and ≤ were set here for values at or beyond the usual limits of such assays
HLA-B*51:01 = test: IEDB peptide-MHC binding, purified MHC/competitive/radioactivity; filed as Kd, often an IC50 or EC50 that approximates it; ≥ and ≤ were set here for values at or beyond the usual limits of such assays; details: source organism: SARS coronavirus Tor2
HLA-B*54:01 = test: as above; details: source organism: SARS coronavirus Tor2
HLA-B*35:01 [2] = test: as above; details: source organism: SARS coronavirus Tor2
HLA-B*53:01 = test: as above; details: source organism: SARS coronavirus Tor2
HLA-B*07:02 [3] = test: as above; details: source organism: SARS coronavirus Tor2
HLA-A*01:01 [4] = test: IEDB peptide-MHC binding, purified MHC/competitive/fluorescence; ≥ and ≤ were set here for values at or beyond the usual limits of such assays
HLA-A*02:01 [5] = test: as above; details: source organism: Zaire ebolavirus
HLA-C*08:02 = test: IEDB peptide-MHC binding, purified MHC/direct/fluorescence; filed as Kd, often an IC50 or EC50 that approximates it; ≥ and ≤ were set here for values at or beyond the usual limits of such assays
HLA-A*01:01 [6] = test: IEDB peptide-MHC binding, purified MHC/competitive/fluorescence; filed as Kd, often an IC50 or EC50 that approximates it; ≥ and ≤ were set here for values at or beyond the usual limits of such assays
HLA-B*35:01 [7] = test: as above
HLA-C*12:03 = test: IEDB peptide-MHC binding, purified MHC/direct/fluorescence; filed as Kd, often an IC50 or EC50 that approximates it; ≥ and ≤ were set here for values at or beyond the usual limits of such assays; details: source organism: Toxoplasma gondii RH
HLA-A*68:02 = test: IEDB peptide-MHC binding, purified MHC/competitive/fluorescence; filed as Kd, often an IC50 or EC50 that approximates it; ≥ and ≤ were set here for values at or beyond the usual limits of such assays; details: source organism: Toxoplasma gondii RH
HLA-B*40:01 [8] = test: as above
HLA-B*15:01 = test: as above
HLA-B*08:01 = test: as above; details: source organism: Escherichia coli
HLA-B*07:02 [9] = test: IEDB peptide-MHC binding, purified MHC/competitive/fluorescence; ≥ and ≤ were set here for values at or beyond the usual limits of such assays
HLA-B*58:01 [10] = test: IEDB peptide-MHC binding, purified MHC/competitive/fluorescence; filed as Kd, often an IC50 or EC50 that approximates it; ≥ and ≤ were set here for values at or beyond the usual limits of such assays
HLA-B*18:01 = test: IEDB peptide-MHC binding, purified MHC/direct/fluorescence; filed as Kd, often an IC50 or EC50 that approximates it; ≥ and ≤ were set here for values at or beyond the usual limits of such assays
HLA-B*40:01 [11] = test: as above
HLA-A*03:01 [12] = test: IEDB peptide-MHC binding, purified MHC/competitive/fluorescence; filed as Kd, often an IC50 or EC50 that approximates it; ≥ and ≤ were set here for values at or beyond the usual limits of such assays; details: source organism: Escherichia coli str. K-12 substr. MG1655
HLA-A*26:01 = test: as above; details: source organism: Escherichia coli str. K-12 substr. MG1655
HLA-A*03:01 [13] = test: IEDB peptide-MHC binding, purified MHC/competitive/fluorescence; ≥ and ≤ were set here for values at or beyond the usual limits of such assays; details: source organism: Sudan ebolavirus
HLA-A*11:01 [14] = test: as above; details: source organism: Sudan ebolavirus
HLA-A*29:02 = test: IEDB peptide-MHC binding, purified MHC/direct/fluorescence; filed as Kd, often an IC50 or EC50 that approximates it; ≥ and ≤ were set here for values at or beyond the usual limits of such assays; details: source organism: Mycobacterium tuberculosis
HLA-B*08:03 = test: as above; details: source organism: Mycobacterium tuberculosis str. Haarlem
HLA-B*58:01 [15] = test: as above; details: source organism: Mycobacterium tuberculosis
HLA-B*27:05 = test: as above; details: source organism: Mycobacterium tuberculosis
HLA-B*57:01 = test: as above; details: source organism: Mycobacterium tuberculosis
HLA-A*01:01 [16] = test: as above; details: source organism: Mycobacterium tuberculosis
HLA-A*02:01 [17] = test: as above; details: source organism: Mycobacterium tuberculosis
HLA-A*03:01 [18] = test: as above; details: source organism: Mycobacterium tuberculosis
HLA-B*46:01 = test: as above; details: source organism: Mycobacterium tuberculosis
HLA-A*69:01 = test: as above; details: source organism: Mycobacterium tuberculosis
HLA-A*31:01 = test: as above; details: source organism: Mycobacterium tuberculosis
HLA-B*44:02 = test: as above; details: source organism: Mycobacterium tuberculosis
HLA-A*11:01 [19] = test: as above; details: source organism: Mycobacterium tuberculosis
HLA-C*03:03 = test: as above; details: source organism: Mycobacterium tuberculosis C
[20] = source organism: Zaire ebolavirus
[21] = source organism: Salmonella enterica subsp. enterica serovar Typhi
[22] = source organism: Shigella flexneri 5 str. 8401
[23] = source organism: Alto Paraguay hantavirus
[24] = source organism: Escherichia coli str. K-12 substr. MG1655
[25] = source organism: Mycobacterium tuberculosis

AKRYEKSAM was tested, and the Kd (HLA-C*14:02; source organism: Yersinia pestis Antiqua) was 1050 nM and the Kd (HLA-B*07:02 [1]) was at least 20000 nM.

APPPQRAAM gave a Kd (HLA-C*14:02; source organism: Mycobacterium tuberculosis variant bovis BCG str. Pasteur 1173P2) of 61 nM.

Work on APYMVGDVI yielded a Kd (HLA-C*05:01; source organism: SARS-CoV1) of at least 20000 nM, a Kd (HLA-B*51:01) of 80 nM and a Kd (HLA-B*54:01) of at least 27300 nM. It also gave a Kd (HLA-B*35:01 [2]) of 11000 nM, a Kd (HLA-B*53:01) of 3580 nM and a Kd (HLA-B*07:02 [3]) of 139 nM.

ASENSSAMV showed an IC50 (HLA-A*01:01 [4]; [20]) of 43500 nM and an IC50 (HLA-A*02:01 [5]) of at least 147000 nM.

FAADKDSLY showed a Kd (HLA-C*08:02; source organism: Salmonella enterica subsp. enterica serovar Typhi str. CT18) of at least 20000 nM, a Kd (HLA-A*01:01 [6]; [21]) of 313 nM and a Kd (HLA-B*35:01 [7]; [21]) of 0.2 nM.

FLDPHPYYV was tested, and the Kd (HLA-C*05:01; source organism: Toxoplasma gondii RH) was at most 1 nM, the Kd (HLA-C*12:03) was 47 nM and the Kd (HLA-A*68:02) was 56.3 nM.

Sequence GELESAIGL has a Kd (HLA-B*40:01 [8]; [22]) of 2.8 nM and a Kd (HLA-B*15:01; [22]) of at least 20000 nM.

With HENARLRAL the Kd (HLA-B*08:01) was 175 nM and the Kd (HLA-B*40:01 [8]; source organism: Escherichia coli) was 4.8 nM.

IEVTNATEL gave a Kd (HLA-B*40:01 [8]; source organism: Influenza A virus) of 5.6 nM.

With IPNSLHSLS the IC50 (HLA-B*07:02 [9]; source organism: Vaccinia virus Copenhagen) was at least 136000 nM.

ISASLAALF showed a Kd (HLA-B*58:01 [10]; source organism: Bacillus anthracis str. A0488) of 1.7 nM.

KEISNQEPL gave a Kd (HLA-C*14:02; source organism: Orthohantavirus dobravaense) of 2070 nM, a Kd (HLA-B*18:01; [23]) of 357 nM and a Kd (HLA-B*40:01 [11]; [23]) of 3.2 nM.

In the case of KVGITGFCY, the Kd (HLA-B*58:01 [10]; [24]) is reported as 418 nM, the Kd (HLA-A*03:01 [12]) is reported as 2200 nM and the Kd (HLA-B*15:01; [24]) is reported as 247 nM.

MENMLDLLM was tested, and the Kd (HLA-B*40:01 [8]; source organism: Yersinia frederiksenii ATCC 33641) was 10.2 nM.

For RINEGWPAY, the Kd (HLA-B*58:01 [10]; [24]) was at least 20000 nM, the Kd (HLA-A*01:01 [6]; [24]) was 481 nM and the Kd (HLA-B*35:01 [7]; [24]) was 59.2 nM. For the same sequence, the Kd (HLA-A*03:01 [12]) was 42.2 nM, the Kd (HLA-A*26:01) was at least 20000 nM and the Kd (HLA-B*15:01; [24]) was 84 nM.

In the case of STDIPSATK, the IC50 (HLA-A*01:01 [4]; source organism: Sudan ebolavirus) is reported as at least 76400 nM, the IC50 (HLA-A*03:01 [13]) is reported as 65600 nM and the IC50 (HLA-A*11:01 [14]) is reported as 1470 nM.

With VPSATKRWG the IC50 (HLA-B*07:02 [9]; [20]) was 64600 nM.

With WMRGRGRAL the Kd (HLA-A*29:02) was at least 20000 nM, the Kd (HLA-B*08:03) was at least 20000 nM and the Kd (HLA-B*58:01 [15]) was at least 20000 nM. It also gave a Kd (HLA-B*27:05) of at least 20000 nM, a Kd (HLA-B*57:01) of at least 20000 nM and a Kd (HLA-A*01:01 [16]) of at least 20000 nM. For the same sequence, the Kd (HLA-A*02:01 [17]) was at least 20000 nM, the Kd (HLA-A*03:01 [18]) was at least 20000 nM and the Kd (HLA-B*46:01) was at least 20000 nM. For the same sequence, the Kd (HLA-B*18:01; [25]) was at least 20000 nM, the Kd (HLA-A*69:01) was at least 20000 nM and the Kd (HLA-B*40:01 [11]; [25]) was at least 20000 nM. It also gave a Kd (HLA-A*31:01) of at least 20000 nM, a Kd (HLA-B*44:02) of at least 20000 nM and a Kd (HLA-A*11:01 [19]) of at least 20000 nM.

For YLPDPTVGV, the Kd (HLA-C*03:03) was at least 20000 nM and the Kd (HLA-C*08:02; source organism: Mycobacterium tuberculosis C) was at least 20000 nM.
